Consider eight molecules from US12686846B2, “Plant sweet and yeast MSF transporter capable of transporting different sugars simultaneously” (THE BOARD OF TRUSTEES OF THE UNIVERSITY OF ILLINOIS, priority 2020, dated 2026).

Values joined by “and” are separate entries in the source; they are usually repeats but may differ in a detail not shown here. Equal entries are not always repeated. “Also recorded” adds a separate entry of the source.

Substrate in data set [1]: OC[C@H]1OC(O)[C@H](O)[C@@H](O)[C@@H]1O
As to the kind of experiment: cells, lysate or membranes. The following applies: other: initial glucose uptake (5 s), 30° C., pH 6.5, 0.2 to 100 mM glucose, ± SEM in Table 1.

Data set [2] concerns SR8D8 expressing transporter. As to the kind of experiment: Glucose and xylose mixed sugar flask fermentation (20 g/L each). Format: cell-based, S. cerevisiae. Particulars: 20 g/L of glucose and xylose, YP medium. Here is the method:
(§1) For flask fermentation, a single colony was inoculated to 5 or 25 mL YPE ([…], 1% w/v yeast extract, 2% peptone, 5% ethanol) supplemented with 200 μg/ml of geneticin to obtain seed cultures. […] Flask fermentations were maintained at 30° C. and 250 rpm.
(§2) A xylose fermenting S. cerevisiae yeast (SR8) with HXT1-7Δ, GAL2Δ deletions was used for transporter screening and characterization (SR8D8). SR8D8 was grown in YPE medium/plate (10 g/L yeast extract, 20 g/L peptone, and 5 g/L ethanol). […] SRD8 strains transformed with plasmid containing KanMX marker conferring resistance to G418 (geneticin) were propagated on YPE supplemented with 200 μg/ml of geneticin. For growth and flask fermentation experiments all media was supplemented with 200 μg/ml of geneticin for plasmid maintenance. Biomass was calculated from the OD600 measured using a Biomate 5 UV-visible spectrophotometer (Fisher, NY, USA). All growth rates were measured using a Bioscreen C plate reader system (Growth Curves USA, Piscataway, NJ, USA). A 2 μL inoculum of fully grown culture was added into 200 μL YP (+200 μg/ml Geneticin) with varying concentrations of different sugars. A wide band filter (420-580 nm) was used to measure optical density. Bioscreen C values represent mean value from three biological replicates. In all cases, the Bioscreen C was set to maintain a temperature of 30° C. and high aeration through high continuous shaking.

For data set [3], the system named is SR8D8 expressing transporter. In words: Transporter screening for growth on glucose or xylose (Bioscreen C). Format: cell-based, S. cerevisiae. The following applies: glucose or xylose containing medium, OD600. Here is the method: ScGal2 expressing SR8D8 were used as a positive control (FIG. 3). Most of the AtSWEETs and putative oleaginous transporters expressing strains were not able to grow on glucose or xylose.
as §2

Data set [4] deals with SR8D8 expressing transporter. In words: Sole glucose or xylose flask fermentation. Format: cell-based, S. cerevisiae. Here is the method: as §1, §2
The test system of data set [5] is transporter-overexpressing SR8D8. In words: Inhibition of xylose uptake by glucose. Type of data set: cell-based, S. cerevisiae. Particulars: 25 mM or 100 mM glucose. Here is the method: SR8D8 containing the respective plasmid was grown on selective YPE medium to an OD600 of 1-1.5, harvested by centrifugation, and washed twice in ice-cold uptake buffer (100 mM potassium phosphate, pH 6.5). C14 labeled sugar uptake assay was done according to Boles and Oreb. Radioactivity was analyzed in a Beckman-Coulter LS6500 multi-purpose liquid scintillation counter (Beckman-Coulter, CA, USA).
Sugar solutions contained 0.135-0.608 μCi of D-[U-^14C]-glucose (290-300 mCi/mmol) or D-[1-^14C]-xylose (55 mCi/mmol) (PerkinElmer, MA, USA). Calculation of Km (Michaelis constant), Vmax (maximal initial uptake velocity), and K (inhibitor constant for competitive inhibition) was done by nonlinear regression analysis and global curve fitting in Prism 7 (GraphPad Software) with values of three independent measurements.

Data set [6] relates to SR8D8 expressing transporter. As to the kind of experiment: Mixed sugar fermentation at industrially relevant sugar concentrations. The following applies: 7% glucose and 4% xylose (70 g/L, 40 g/L). Format: cell-based, S. cerevisiae. Here is the method:
as §1

B1: Lipomyces starkeyi LST1_205437 transporter, wild type, SEQ ID NO: 4 (Lipomyces starkeyi NRRL Y-11557) (protein)
chain: MGFLGFLNRSQASEPVEKESTATTPSEGRTPQRPLSPAVGVPLEQDFETQLSAKDAPLLAFILGGVASVGGFMFGYQTGQISGFLEMSDFKTRFAACNSQTGQCTFSAARQGTIVGLFSIGTLIGSLIAAPIADRIGRRLTISFWAFFFMIGTVLEISSSHVWVQFAMGRFVGGLGIGALSVVVPMYQSESTPRMIRGVIVSSYQLMVTLGIWLAYMINWGTESLQGSQSWRITNGMSFLWALVLGIAILGLPESPRYAYRVGREEEARKNMARLYKLSPNHPIINLEIQEIQEKLDAERVGGDHPWYEIFTGPRMLYRTILGMVLQAGQQLTGANYFFYYGTTVFSATGLSNSYVTQIILGSVNVGGTIAGLWLIENCGRRKALMGGAAWMFMCFMVFAFVGHFSLDHQNPEATPQAGAALVVFSCLFIIAFAMTWGPIVWAIVGELYPARYRATCMGLATSSNWLFNFLIGFFTTFITGDIDYLYGLVFAGCCFALFFIVYFFVIETKGRSLEEIDTMYVLHVNPINSAKWDSSQLMRDGDGLVNTDDLYLEAGGNRFAKDEHSAHEMIPSHDENAPGPSHTSHADIEKAESSGAESRDAL
As usually defined, the Km is the substrate concentration at which the rate is half of its maximum. The Vmax is the top rate of the reaction or transport when substrate is in excess. With B1, in data set [1], the Km amounted to 4975 µM and the Vmax was 46.89 nmol/min/mg.

B2: AtSWEET4: Arabidopsis thaliana SWEET4 transporter polypeptide (protein, UniProt Q944M5 1-251, looked up)
Bidirectional sugar …: MVNATVARNIAGICGNVISLFLFLSPIPTFITIYKKKKVEEYKADPYLATVLNCALWVFYGLPMVQPDSLLVITINGTGLAIELVYLAIFFFFSPTSRKVKVGLWLIGEMVFVGIVATCTLLLFHTHNQRSSFVGIFCVIFVSLMYIAPLTIMSKVIKTKSVKYMPFSLSLANFLNGVVWVIYALIKFDLFILIGNGLGTVSGAVQLILYACYYKTTPKDDEDEEDEENLSKVNSQLQLSGNSGQAKRVSA
With B2, the “glucose and xylose mixed sugar fermentation phenotype” value in data set [2] is “co-consumption of glucose and xylose with a faster glucose consumption rate than that of xylose; also recorded: co-fermentation with glucose preference”; in data set [2] (listed as SWEET4), “simultaneously utilize glucose and xylose”. In addition, the “growth / transport capacity on glucose or xylose” value (“growth / transport capacity” for short) in data set [3] is “substantial growth on xylose and glucose; also recorded: both glucose and xylose transport capacity”; in data set [3] (listed as SWEET4) it was “capable of sustaining an efficient growth on glucose or xylose”.

B3: AtSWEET1: Arabidopsis thaliana SWEET1 transporter polypeptide, SEQ ID NO:1 (protein)
chain: MNIAHTIFGVFGNATALFLFLAPSITFKRIIKNKSTEQFSGIPYPMTLLNCLLSAWYGLPFVSKDNTLVSTINGTGAVIETVYVLIFLFYAPKKEKIKIFGIFSCVLAVFATVALVSLFALQGNGRKLFCGLAATVFSIIMYASPLSIMRLVVKTKSVEFMPFFLSLFVFLCGTSWFVYGLIGRDPFVAIPNGFGCALGTLQLILYFIYCGNKGEKSADAQKDEKSVEMKDDEKKQNVVNGKQDLQV
modifications: Arabidopsis thaliana SWEET1 (AtSWEET1) transporter polypeptide
B3: in data set [2], the “glucose and xylose mixed sugar fermentation phenotype” value is “complete preference for glucose with negligible xylose consumption; also recorded: solo glucose fermentation”. In addition, in data set [4] (glucose or xylose conditions, YP medium), the “sole sugar fermentation performance” value is given as “robust glucose fermentation but inefficient xylose fermentation”. Also, the xylose consumption in data set [4] (xylose fermentation, within 50 h) is recorded as 5 g/L. In addition, the “growth / transport capacity” value in data set [3] was “can sustain growth of SR8D8 in glucose and xylose containing medium; also recorded: glucose transporter with almost no xylose transport capacity”.

B4: F168A: AtSWEET1 single mutation F168A (protein, UniProt Q8L9J7 1-247, looked up, variant F168A)
Bidirectional sugar …: MNIAHTIFGVFGNATALFLFLAPSITFKRIIKNKSTEQFSGIPYPMTLLNCLLSAWYGLPFVSKDNTLVSTINGTGAVIETVYVLIFLFYAPKKEKIKIFGIFSCVLAVFATVALVSLFALQGNGRKLFCGLAATVFSIIMYASPLSIMRLVVKTKSVEFMPFFLSLAVFLCGTSWFVYGLIGRDPFVAIPNGFGCALGTLQLILYFIYCGNKGEKSADAQKDEKSVEMKDDEKKQNVVNGKQDLQV
Turning to B4, the “glucose and xylose mixed sugar fermentation phenotype” value in data set [2] is “capable of improving both glucose and xylose uptake rate”.

B5: Saccharomyces cerevisiae ScGal2 (Gal2) transporter, SEQ ID NO:32 (Saccharomyces cerevisiae S288C) (protein)
chain: MAVEENNMPVVSQQPQAGEDVISSLSKDSHLSAQSQKYSNDELKAGESGSEGSQSVPIEIPKKPMSEYVTVSLLCLCVAFGGFMFGWDTGTISGFVVQTDFLRRFGMKHKDGTHYLSNVRTGLIVAIFNIGCAFGGIILSKGGDMYGRKKGLSIVVSVYIVGIIIQIASINKWYQYFIGRIISGLGVGGIAVLCPMLISEIAPKHLRGTLVSCYQLMITAGIFLGYCTNYGTKSYSNSVQWRVPLGLCFAWSLFMIGALTLVPESPRYLCEVNKVEDAKRSIAKSNKVSPEDPAVQAELDLIMAGIEAEKLAGNASWGELFSTKTKVFQRLLMGVFVQMFQQLTGNNYFFYYGTVIFKSVGLDDSFETSIVIGVVNFASTFFSLWTVENLGHRKCLLLGAATMMACMVIYASVGVTRLYPHGKSQPSSKGAGNCMIVFTCFYIFCYATTWAPVAWVITAESFPLRVKSKCMALASASNWVWGFLIAFFTPFITSAINFYYGYVFMGCLVAMFFYVFFFVPETKGLSLEEIQELWEEGVLPWKSEGWIPSSRRGNNYDLEDLQHDDKPWYKAMLE
For the molecule B5, in data set [1], the Km is 1613 µM and 1600 ± 200 µM.

B6: ScGal2: S. cerevisiae Gal2 hexose transporter, control; SEQ ID NO:32 (protein)
chain: MAVEENNMPVVSQQPQAGEDVISSLSKDSHLSAQSQKYSNDELKAGESGSEGSQSVPIEIPKKPMSEYVTVSLLCLCVAFGGFMFGWDTGTISGFVVQTDFLRRFGMKHKDGTHYLSNVRTGLIVAIFNIGCAFGGIILSKGGDMYGRKKGLSIVVSVYIVGIIIQIASINKWYQYFIGRIISGLGVGGIAVLCPMLISEIAPKHLRGTLVSCYQLMITAGIFLGYCTNYGTKSYSNSVQWRVPLGLCFAWSLFMIGALTLVPESPRYLCEVNKVEDAKRSIAKSNKVSPEDPAVQAELDLIMAGIEAEKLAGNASWGELFSTKTKVFQRLLMGVFVQMFQQLTGNNYFFYYGTVIFKSVGLDDSFETSIVIGVVNFASTFFSLWTVENLGHRKCLLLGAATMMACMVIYASVGVTRLYPHGKSQPSSKGAGNCMIVFTCFYIFCYATTWAPVAWVITAESFPLRVKSKCMALASASNWVWGFLIAFFTPFITSAINFYYGYVFMGCLVAMFFYVFFFVPETKGLSLEEIQELWEEGVLPWKSEGWIPSSRRGNNYDLEDLQHDDKPWYKAMLE
modifications: protein sequence alignmnet of ScGal2
In the case of B6, the “inhibition of xylose transport by glucose (in words)” value in data set [5] was “complete xylose inhibition even at the presence of 25 mM glucose”. For the same molecule, the “glucose and xylose mixed sugar fermentation phenotype” value in data set [2] was “sequential fermentation”; in data set [2] (listed as GAL2), “transport both glucose and xylose in a sequential manner; also recorded: sequential manner of sugar utilization”. In addition, the “mixed sugar utilization profile at high sugar” value in data set [6] is “sequential utilization of glucose and xylose”.

B7: A175F: AtSWEET7 single mutation A175F (protein, UniProt Q8LBF7 1-258, looked up, variant A175F)
Bidirectional sugar …: MVFAHLNLLRKIVGIIGNFIALCLFLSPTPTFVRIVKKKSVEEYSPIPYLATLINCLVWVLYGLPTVHPDSTLVITINGTGILIEIVFLTIFFVYCGRQKQRLIISAVIAAETAFIAILAVLVLTLQHTTEKRTMSVGIVCCVFNVMMYASPLSVMKMVIKTKSVEFMPFWLSVFGFLNAGVWTIYALMPFDPFMAIPNGIGCLFGLAQLILYGAYYKSTKRIMAERENQPGYVGLSSAIARTGSEKTANTNQEPNNV
Take B7: the “glucose and xylose mixed sugar fermentation phenotype” value in data set [2] was “capable of improving glucose and xylose uptake rate”.

B8: AtSWEET5: Arabidopsis thaliana SWEET5 transporter polypeptide (protein, UniProt Q9FM10 1-240, looked up)
Bidirectional sugar …: MTDPHTARTIVGIVGNVISFGLFCAPIPTMVKIWKMKSVSEFKPDPYVATVLNCMMWTFYGLPFVQPDSLLVITINGTGLFMELVYVTIFFVFATSPVRRKITIAMVIEVIFMAVVIFCTMYFLHTTKQRSMLIGILCIVFNVIMYAAPLTVMKLVIKTKSVKYMPFFLSLANFMNGVVWVIYACLKFDPYILIPNGLGSLSGIIQLIIYITYYKTTNWNDDDEDKEKRYSNAGIELGQA
Take B8: in data set [2], the “glucose and xylose mixed sugar fermentation phenotype” value is “simultaneously utilize glucose and xylose”. The “growth / transport capacity” value in data set [3] is recorded as “capable of sustaining an efficient growth on glucose or xylose”.
